Holding throughout (format): biochemical
Data set [1] can be described thus: HTP-analysis of supernatants pretreated with acid (MUGal hydrolysis). The following applies: challenge at pH 4.2; activity of the variant/activity of WT GLA (SEQ ID NO: 5); yeast supernatant. Summed up: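 MUGal hydrolysis was tracked by fluorescence (Ex 355 nm, Em 448 nm) after a 30-180 min reaction at 37° C. in pH 4.8 McIlvaine/citrate buffer, stopped with 1 M sodium carbonate. Beforehand, yeast (INVSc1) culture supernatants carrying GLA variants were held 1-3 h at 37° C. in acidic McIlvaine buffer, pH 3.3-4.3.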

The nature of data set [2]: HTP-analysis of supernatants pretreated with base (MUGal hydrolysis). The following applies: challenge at pH 7.1; activity of the variant/activity of WT GLA (SEQ ID NO: 5); yeast supernatant. Summed up: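 GLA variants secreted from yeast INVSc1; culture supernatants pre-incubated with McIlvaine buffer pH 7.0–8.2 or 200 mM bicarbonate pH 9.1–9.7 at 37° C. for 1–18 h. Residual activity: MUGal (4 mM stock) hydrolysis at pH 4.3–4.8, 37° C., 30–180 min, carbonate quench; fluorescence Ex 355/Em 448 nm.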

Data set [3] can be described thus: HTP-analysis of yeast culture supernatants, no challenge (MUGal hydrolysis). The following applies: activity of the variant/activity of WT GLA (SEQ ID NO: 5), yeast supernatant. Summed up: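 GLA variants were expressed in INVSc1 yeast grown in SD-Ura broth with glucose at 30° C., and culture supernatants were collected after 66-84 h. Supernatant was mixed with McIlvaine buffer pH 4.8 and MUGal (2 mM stock) in 50 mM citrate, 200 mM KCl, pH 4.6, incubated at 37° C. for 30-180 minutes, then quenched with sodium carbonate.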

B1: 153 (protein)
chain: LDNGLARTPTMGWLHWERFMCNLDCQEEPDSCISEKLFMEMAELMVSEGWKDAGYEYLCIDDCWMAPQRDSEGRLQADPQRFPHGIRQLANYVHSKGLKLGIYADVGNKTCAGFPGSFGYYDIDAQTFADWGVDLLKFDGCYCDSLENLADGYKHMSLALNRTGRSIVYSCEWPLYMWPFQKPNYTEIRQYCNHWRNFADIDDSWKSIKSILDWTSFNQETIVDVAGPGGWNDPDMLVIGNFGLSWNQQVTQMALWAIMAAPLFMSNDLRHISPQAKALLQDKDVIAINQDPLGKQGYQLRQGDNFEVWERPLSGLAWAVAMINRQEIGGPRSYTIAVASLGKGVACNPACFITQLLPVKRKLGFYEWTSRLRSHINPTGTVLLQLENTMQMSKDLLL
modifications: Synthetic Polypeptide sequence of Variant No. 153 of mature Human GLA
B1: the “Relative Activity of GLA Variants After Challenge at pH 4.2” value (“Relative Activity … at pH 4.2” for short) in data set [1] is “+ (+ = 0.5 to 1.5 relative activity over WT GLA (SEQ ID NO: 5))”. Further, the “Relative Activity of GLA Variants After Challenge at pH 7.1” value (shortened to “Relative Activity … at pH 7.1”) in data set [2] is recorded as “++ (++ = >1.5 to 2.5 relative activity over WT GLA (SEQ ID NO: 5))”. For the same molecule, the “Relative Activity of GLA Variants After No Challenge (NC)” value in data set [3] was “+ (+ = 0.5 to 1.5 relative activity over WT GLA (SEQ ID NO: 5))”.

B2: 154 (protein)
chain: LDNGLARTPTMGWLHWERFMCNLDCQEEPDSCISEKLFMEMAELMVSEGWKDAGYEYLCIDDCWMAPQRDSEGRLQADPQRFPHGIRQLANYVHSKGLKLGIYADVGNKTCAGFPGSFGYYDIDAQTFADWGVDLLKFDGCYCDSLENLADGYKHMSLALNRTGRSIVYSCEWPLYMWPFQKPNYTEIRQYCNHWRNFADIDDSWKSIKSILDWTSFNQERIVDVAGPGGWNDPDMLVIGNFGLSWNQQVTQMALWAIMAAPLFMSNDLRHISPQAKALLQDKDVIAINQDPLGKQGYQLIQGDNFEVWERPLSGLAWAVAMINRQEIGGPRSYTIAVASLGKGVACNPACFITQLLPVKRTLGFYEWTSRLRSHINPTGTVLLQLENTMQMSKDLLL
modifications: Synthetic Polypeptide sequence of Variant No. 154 of mature Human GLA
In the case of B2, the “Relative Activity … at pH 4.2” value in data set [1] was “+ (+ = 0.5 to 1.5 relative activity over WT GLA (SEQ ID NO: 5))”. Also, the “Relative Activity … at pH 7.1” value in data set [2] is listed as “++ (++ = >1.5 to 2.5 relative activity over WT GLA (SEQ ID NO: 5))”. In addition, the “Relative Activity of GLA Variants After No Challenge (NC)” value in data set [3] is recorded as “++ (++ = >1.5 to 2.5 relative activity over WT GLA (SEQ ID NO: 5))”.

B3: 159 (protein)
chain: LDNGLARTPTMGWLHWERFMCNLDCQEEPDSCISEKLFMEMAELMVSEGWKDAGYEYLCIDDCWMAPQRDSEGRLQADPQRFPHGIPQLANYVHSKGLKLGIYADVGNKTCAGFPGSFGYYDIDAQTFADWGVDLLKFDGCYCDSLENLADGYKHMSLALNRTGRSIVYSCEWPLYMWPFQKPNYTEIRQYCNHWRNFADIDDSWKSIKSILDWTSFNQERIVDVAGPGGWNDPDMLVIGNFGLSWNQQVTQMALWAIMAAPLFMSNDLRHISPQAKALLQDKDVIAINQDPLGKQGYQLRQGDNFEVWERPLSGLAWAVAMINRQEIGGPRSYTIAVASLGKGVACNPACFITQLLPVKRKLGFYEWTSRLRSHINPTGTVLLQLENTMQMSKDLLR
modifications: Synthetic Polypeptide sequence of Variant No. 159 of mature Human GLA
Turning to B3, the “Relative Activity … at pH 4.2” value in data set [1] was “+ (+ = 0.5 to 1.5 relative activity over WT GLA (SEQ ID NO: 5))”. Further, in data set [2], the “Relative Activity … at pH 7.1” value was “+ (+ = 0.5 to 1.5 relative activity over WT GLA (SEQ ID NO: 5))”. Besides, the “Relative Activity of GLA Variants After No Challenge (NC)” value in data set [3] is listed as “+ (+ = 0.5 to 1.5 relative activity over WT GLA (SEQ ID NO: 5))”.

B4: 160 (protein)
chain: LDNGLARTPTMGWLHWERFMCNLDCQEEPDSCISEKLFMEMAELMVSEGWKDAGYEYLCIDDCWMAPQRDSEGRLQADPQRFPHGIRQLANYVHSKGLKLGIYADVGNKTCAGFPGSFGYYDIDAQTFADWGVDLLKFDGCYCDSLENLADGYKHMSLALNRTGRAIVYSCEWPLYMWPFQKPNYTEIRQYCNHWRNFADIDDSWKSIKSILDWTSFNQERIVDVAGPGGWNDPDMLVIGNFGLSWNQQVTQMALWAIMAAPLFMSNDLRHISPQAKALLQDKDVIAINQDPLGKQGYQLRQGDNFEVWERPLSGLAWAVAMINRQEIGGPRSYTIAVASLGKGVACNPACFITQLLPVKRKLGFYEWTSRLRSHINPTGTVLLQLENTMQMSKDLLL
modifications: Synthetic Polypeptide sequence of Variant No. 160 of mature Human GLA
In the case of B4, the “Relative Activity … at pH 4.2” value in data set [1] was “++ (++ = >1.5 to 2.5 relative activity over WT GLA (SEQ ID NO: 5))”. Also, the “Relative Activity … at pH 7.1” value in data set [2] is on record as “+ (+ = 0.5 to 1.5 relative activity over WT GLA (SEQ ID NO: 5))”. Also, the “Relative Activity of GLA Variants After No Challenge (NC)” value in data set [3] was “+ (+ = 0.5 to 1.5 relative activity over WT GLA (SEQ ID NO: 5))”.

B5: 157 (protein)
chain: LDNGLARTPTMGWLHWERFMCNLDCQEEPDSCISEKLFMEMAELMVSEGWKDAGYEYLCIDDCWMAPQRDSEGRLQADPQRFPHGIRQLANYVHSKGLKLGIYADVGNKTCAGFPGSFGYYDIDAQTFADWGVDLLKFDGCYCDSLENLADGYKHMSLALNRTGRSIVYSCEWPLYMWPFQKPNYTEIRQYCNHWRNFADIDDSWKSIKSILDWTSFNQERIVDVAGPGGWNDPDMLVIGNFGLSWNQQVTQMALWAIMAAPLFMSNDLRHISPQAKALLQDKDVIAINQDPLGKQGYQLRQGDNFEVWERPLSGLAWAVAMINRQEIGGPRSYTIAVASLGKGVACNPACFITQLLPVKRKLGFYEWTSVLRSHINPTGTVLLQLENTMQMSKDLLL
modifications: Synthetic Polypeptide sequence of Variant No. 157 of mature Human GLA
On to B5, for which the “Relative Activity … at pH 4.2” value in data set [1] is “+ (+ = 0.5 to 1.5 relative activity over WT GLA (SEQ ID NO: 5))”. The “Relative Activity … at pH 7.1” value in data set [2] is given as “++ (++ = >1.5 to 2.5 relative activity over WT GLA (SEQ ID NO: 5))”. Moreover, the “Relative Activity of GLA Variants After No Challenge (NC)” value in data set [3] was “++ (++ = >1.5 to 2.5 relative activity over WT GLA (SEQ ID NO: 5))”.

B6: 158 (protein)
chain: LDNGLARTPTMGWLHWERFMCNLDCQEEPDSCISEKLFMEMAELMVSEGWKDAGYEYLCIDDCWMAPQRDSEGRLQADPQRFPHGIKQLANYVHSKGLKLGIYADVGNKTCAGFPGSFGYYDIDAQTFADWGVDLLKFDGCYCDSLENLADGYKHMSLALNRTGRSIVYSCEWPLYMWPFQKPNYTEIRQYCNHWRNFADIDDSWKSIKSILDWTSFNQERIVDVAGPGGWNDPDMLVIGNFGLSWNQQVTQMALWAIMAAPLFMSNDLRHISPQAKALLQDKDVIAINQDPLGKQGYQLRQGDNFEVWERPLSGLAWAVAMINRQEIGGPRSYTIAVASLGKGVACNPACFITQLLPVKRKLGFYEWTSRLRSHINPTGTVLLQLENTMQMSKDLLL
modifications: Synthetic Polypeptide sequence of Variant No. 158 of mature Human GLA
Consider B6, for which, in data set [1], the “Relative Activity … at pH 4.2” value is “+ (+ = 0.5 to 1.5 relative activity over WT GLA (SEQ ID NO: 5))”. For the same molecule, the “Relative Activity … at pH 7.1” value in data set [2] is reported as “++ (++ = >1.5 to 2.5 relative activity over WT GLA (SEQ ID NO: 5))”. Besides, the “Relative Activity of GLA Variants After No Challenge (NC)” value in data set [3] is given as “++ (++ = >1.5 to 2.5 relative activity over WT GLA (SEQ ID NO: 5))”.

B7: 155 (protein)
chain: LDNGLARTPTMGWLHWERFMCNLDCQEEPDSCISEKLFMEMAELMVSEGWKDAGYEYLCIDDCWMAPQRDSEGRLQADPQRFPHGIRQLANYVHSKGLKLGIYADVGNKTCAGFPGSFGYYDIDAQTFADWGVDLLKFDGCYCDSLENLADGYKHMSLALNRTGRSIVYSCEWPLYMWPFQKPNYTEIRQYCNHWRNFADIDDSWKSIKSILDWTSFNQERIVDVAGPGGWNDPDMLVIGNFGLSWNQQVTQMALWAIMAAPLFMSNDLRHISPQAKALLQDKDVIAINQDPLGKQGYQLLQGDNFEVWERPLSGLAWAVAMINRQEIGGPRSYTIAVASLGKGVACNPACFITQLLPVKRKLGFYEWTSRLRSHINPTGTVLLQLENTMQMSKDLLL
modifications: Synthetic Polypeptide sequence of Variant No. 155 of mature Human GLA
As for B7, in data set [1], the “Relative Activity … at pH 4.2” value is on record as “+ (+ = 0.5 to 1.5 relative activity over WT GLA (SEQ ID NO: 5))”. Besides, in data set [2], the “Relative Activity … at pH 7.1” value is given as “+ (+ = 0.5 to 1.5 relative activity over WT GLA (SEQ ID NO: 5))”. Moreover, in data set [3], the “Relative Activity of GLA Variants After No Challenge (NC)” value is recorded as “+ (+ = 0.5 to 1.5 relative activity over WT GLA (SEQ ID NO: 5))”.

B8: 156 (protein)
chain: LDNGLARTPTMGWLHWERFMCNLDCQEEPDSCISEKLFMEMAELMVSEGWKDAGYEYLCIDDCWMAPQRDSEGRLQADPQRFPHGIRQLANYVHSKGLKLGIYADVGNKTCAGFPGSFGYYDIDAQTFADWGVDLLKFDGCYCDSLENLADGYKHMSLALNRTGRSIVYSCEWPLYMWPFQKPNYTEIRQYCNHWRNFADIDDSWKSIKSILDWTSFNQERIVDVAGPGGWNDPDMLVIGNFGLSWNQQVTQMALWAIMAAPLFMSNDLRHISPQAKALLQDKDVIAINQDPLGKQGYQLRQGDNFEVWERPLSGLAWAVAMINRQEIGGPRSYTIAVASLGKGVACNPACFITQLLPVKRKLGFYEWTSSLRSHINPTGTVLLQLENTMQMSKDLLL
modifications: Synthetic Polypeptide sequence of Variant No. 156 of mature Human GLA
For B8, the “Relative Activity … at pH 4.2” value in data set [1] is “+ (+ = 0.5 to 1.5 relative activity over WT GLA (SEQ ID NO: 5))”. The “Relative Activity … at pH 7.1” value in data set [2] is listed as “++ (++ = >1.5 to 2.5 relative activity over WT GLA (SEQ ID NO: 5))”. In addition, in data set [3], the “Relative Activity of GLA Variants After No Challenge (NC)” value is “++ (++ = >1.5 to 2.5 relative activity over WT GLA (SEQ ID NO: 5))”.

The record behind these values is patent US11278600B2, “Human alpha-galactosidase variants” (Codexis, Inc., priority 2014, dated 2022).
